Reference: patent publication US20150037339A1 (Regeneron, published 2015)
One block for each binder: values may come before it.

Key:
Activin A [1] = biological target: T1, Activin A (human, UniProt P08476 311-426); test: SPR, captured mAb, 25C
T1 construct: Homodimer of two βA subunits; bought from R&D Systems (#338-AC); also called inhibin-βA dimer; human Activin A
T1 sequence: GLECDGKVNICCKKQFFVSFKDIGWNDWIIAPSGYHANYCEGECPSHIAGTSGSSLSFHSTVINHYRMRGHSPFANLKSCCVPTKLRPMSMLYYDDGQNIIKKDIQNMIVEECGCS
Method in brief: (§1)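 Antibodies were captured and activin variants injected, with association monitored for 240 s and dissociation for 600 s. Runs were at 25 °C or 37 °C as indicated per assay. KD was calculated as kd/ka and t1/2 as ln2/(60·kd) in min, from the fitted rate constants.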

Activin B [2] = biological target: T2, Activin B (human, UniProt P09529 293-407); test: SPR, captured mAb, 25C
T2 construct: Homodimer of two βB subunits; R&D Systems #659-AB
T2 chain: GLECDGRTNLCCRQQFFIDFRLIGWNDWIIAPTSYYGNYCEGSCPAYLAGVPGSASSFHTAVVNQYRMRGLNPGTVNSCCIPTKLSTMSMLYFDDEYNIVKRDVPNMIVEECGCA
Method in brief: as §1

Activin A [3] = biological target: T1, Activin A; test: SPR, captured mAb, 37C
Method in brief: as §1

Activin B [4] = biological target: T2, Activin B; test: SPR, captured mAb, 37C
Method in brief: as §1

Activin A [5] = biological target: T1, Activin A; test: SPR, captured mAb, 37C; no dissociation observed, kd fixed
Experimental: (§2) Antibody-antigen association was monitored for 240 seconds while dissociation in buffer was monitored for 600 seconds. Kinetic association and dissociation rate constants were determined by processing and fitting the data using Scrubber software version 2.0c. Binding equilibrium dissociation constants (KD) and dissociative half-lives (t_{1/2}) were then calculated from the kinetic rate constants as: KD (M)=kd/kₐ and t_{1/2} (min)=[ln 2/(60*kd)]. (NB=no binding observed under the conditions used; NT=not tested).

Activin A [6] = biological target: T1, Activin A; test: Octet cross-competition; binder on anti-hFc tip; 50 nM hActivin A pre-bound with 1 uM H4H10423P (col 4); white box
Experimental: (§3) No. 8,309,082) and Control 3 (MAB3381, available from R&D Systems, Inc., Minneapolis, Minn.) were also included in the assays. All assays were performed at 25° C. with a microtiter plate shaking rate of 1000 rpm in Octet HBST buffer (0.01 M HEPES pH7.4, 0.15M NaCl, 3 mM EDTA, 0.05% v/v Surfactant P20, 0.1 mg/mL BSA) according to manufacturer's instructions (ForteBio Corp., Menlo Park, Calif.). […] Any remaining anti-hFc binding sites on the tips were blocked by incubating the tips in a 50 ug/mL solution of irrelevant antibody for 5 minutes.

Activin A [7] = biological target: T1, Activin A; test: Octet cross-competition; binder on anti-hFc tip; 50 nM hActivin A pre-bound with 1 uM H4H10430P (col 5); black box
Experimental: as §3

Activin A [8] = biological target: T1, Activin A; test: Octet cross-competition; binder on anti-hFc tip; 50 nM hActivin A pre-bound with 1 uM Control 1 (col 10); black box
Experimental: as §3

Activin A [9] = biological target: T1, Activin A; test: Octet cross-competition; binder on anti-hFc tip; 50 nM hActivin A pre-bound with 1 uM Control 3 (col 11); black box
Experimental: as §3

Activin A [10] = biological target: T1, Activin A; test: Octet cross-competition; binder on anti-hFc tip; 50 nM hActivin A pre-bound with 1 uM H4H10432P2 (col 7); black box
Experimental: as §3

Activin A [11] = biological target: T1, Activin A; test: Octet cross-competition; binder on anti-hFc tip; 50 nM hActivin A pre-bound with 1 uM H4H10436P2 (col 8); black box
Experimental: as §3

Activin A [12] = biological target: T1, Activin A; test: Octet cross-competition; binder on anti-hFc tip; 50 nM hActivin A pre-bound with 1 uM H4H10440P2 (col 9); black box
Experimental: as §3

Activin A [13] = biological target: T1, Activin A; test: Octet cross-competition; binder on anti-hFc tip; 50 nM hActivin A pre-bound with 1 uM H4H10442P2 (col 3); white box
Experimental: as §3

Activin A [14] = biological target: T1, Activin A; test: Octet cross-competition; binder on anti-hFc tip; 50 nM hActivin A pre-bound with 1 uM H4H10446P2 (col 1); white box
Experimental: as §3

Activin A [15] = biological target: T1, Activin A; test: Octet cross-competition; binder on anti-hFc tip; 50 nM hActivin A pre-bound with 1 uM H4H10468P2 (col 2); white box
Experimental: as §3

Activin A [16] = biological target: T1, Activin A; test: Octet cross-competition; binder on anti-hFc tip; 50 nM hActivin A mixed with 1 uM Isotype control 12 (-) (col 12); dark grey box
Experimental: as §3

Activin A [17] = biological target: T1, Activin A; test: Octet cross-competition; binder on anti-hFc tip; 50 nM hActivin A mixed with 1 uM Isotype control 13 (-) (col 13); dark grey box
Experimental: as §3

Activin A [18] = biological target: T1, Activin A; test: SPR, captured mAb, 25C; no dissociation observed, kd fixed
Experimental: as §2

Activin A [19] = biological target: T1, Activin A; test: Octet cross-competition; binder on anti-hFc tip; 50 nM hActivin A pre-bound with 1 uM H4H10429P (col 6); black box
Experimental: as §3

Activin A [20] = biological target: T1, Activin A; test: Octet cross-competition; binder on anti-hFc tip; 50 nM hActivin A pre-bound with 1 uM H4H10423P (col 4); black box
Experimental: as §3

Activin A-20 nM (RU) (Activin A [1]): 24.9 RU | Kd (Activin A [1]): 0.00817 nM | koff (Activin A [1]): 6.39e-05 s⁻¹ | kon (Activin A [1]): 7.82e+06 M⁻¹ s⁻¹ | t1/2 (Activin A [1]): 3.01 h | 50 nM Ag Bound (RU) (Activin B [2]): 26.4 RU | Kd (Activin B [2]): 3.75 nM | koff (Activin B [2]): 0.0131 s⁻¹ | kon (Activin B [2]): 3.49e+06 M⁻¹ s⁻¹ | t1/2 (Activin B [2]): 0.015 h | Activin A-20 nM (RU) (Activin A [3]): 31.4 RU | Kd (Activin A [3]): ≤ 0.00375 nM | kon (Activin A [3]): 1.33e+07 M⁻¹ s⁻¹ | t1/2 (Activin A [3]): ≥ 3.85 h | 50 nM Ag Bound (RU) (Activin B [4]): 25.3 RU | Kd (Activin B [4]): 9.98 nM | koff (Activin B [4]): 0.0343 s⁻¹ | kon (Activin B [4]): 3.43e+06 M⁻¹ s⁻¹ | t1/2 (Activin B [4]): 0.3 min | koff (Activin A [5]): ≤ 5e-05 s⁻¹ | binding response (Activin A [6]): 1.39 | binding response (Activin A [7]): 0.65 | binding response (Activin A [8]): 0.16 | binding response (Activin A [9]): -0.01 | binding response (Activin A [10]): 0.26 | binding response (Activin A [11]): 0.34 | binding response (Activin A [12]): 0.29 | binding response (Activin A [13]): 1.4 | binding response (Activin A [14]): 1.24 | binding response (Activin A [15]): 1.37 | binding response (Activin A [16]): 0.39 | binding response (Activin A [17]): 0.24
B1: H4H10429P (antibody, human IgG4, V domains shown)
VH: QVQLVESGGGVVQPGRSLRLSCVASGFTVSSYGIHWVRQAPGKGLEWVSVIWYDGRNKDYADSVKGRFTISRDNSKNTVYLEMKGLRAEDTALYYCARDKTGDFDSWGQGTLVTVSS
VL: DIQMTQSPSSLSASVGDRVTITCRASQNINSFLSWYQQKPGKAPKFLIYDASSIQSGAPSRFSGSGSGTDFTLTISSLQPEDFATYYCQQSYSSPFTFGQGTKLEIK

Activin A-20 nM (RU) (Activin A [1]): 20.7 RU | Kd (Activin A [1]): ≤ 0.00318 nM | kon (Activin A [1]): 1.57e+07 M⁻¹ s⁻¹ | t1/2 (Activin A [1]): ≥ 3.85 h | 50 nM Ag Bound (RU) (Activin B [2]): 5.1 RU | binding result (Activin B [2]): no binding (tested: 50 nM) | Activin A-20 nM (RU) (Activin A [3]): 25.1 RU | Kd (Activin A [3]): ≤ 0.00218 nM | kon (Activin A [3]): 2.3e+07 M⁻¹ s⁻¹ | t1/2 (Activin A [3]): ≥ 3.85 h | 50 nM Ag Bound (RU) (Activin B [4]): 5.1 RU | koff (Activin A [18]): ≤ 5e-05 s⁻¹ | koff (Activin A [5]): ≤ 5e-05 s⁻¹ | binding response (Activin A [6]): 1.32 | binding response (Activin A [19]): 0.32 | binding response (Activin A [7]): 0.28 | binding response (Activin A [8]): 0.15 | binding response (Activin A [9]): -0.05 | binding response (Activin A [11]): 0.29 | binding response (Activin A [12]): 0.27 | binding response (Activin A [13]): 1.63 | binding response (Activin A [14]): 1.36 | binding response (Activin A [15]): 1.58 | binding response (Activin A [16]): 0.3 | binding response (Activin A [17]): 0.11
B2: H4H10432P2 (antibody, human IgG4, V domains shown)
VH: EVQLVESGGGLVQPGRSLTLSCAVSGFTFDDHAMHWVRQAPGKGLEWVSGISWNSVSIGYADSVKGRFTISRDNAKTSLYLQMNSLRVDDTALYYCVQDLNDILTGYPLFDFWGQGTLVTVSS
VL: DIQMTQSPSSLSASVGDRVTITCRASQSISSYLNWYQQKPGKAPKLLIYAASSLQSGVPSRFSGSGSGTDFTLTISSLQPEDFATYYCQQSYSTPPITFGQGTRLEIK

Activin A-20 nM (RU) (Activin A [1]): 19.4 RU | Kd (Activin A [1]): 0.00352 nM | koff (Activin A [1]): 0.000167 s⁻¹ | kon (Activin A [1]): 4.75e+07 M⁻¹ s⁻¹ | t1/2 (Activin A [1]): 1.15 h | 50 nM Ag Bound (RU) (Activin B [2]): 3.9 RU | Activin A-20 nM (RU) (Activin A [3]): 25 RU | Kd (Activin A [3]): 0.00397 nM | koff (Activin A [3]): 0.000151 s⁻¹ | kon (Activin A [3]): 3.8e+07 M⁻¹ s⁻¹ | t1/2 (Activin A [3]): 1.27 h | 50 nM Ag Bound (RU) (Activin B [4]): 3.6 RU | binding result (Activin B [4]): no binding (tested: 50 nM) | binding response (Activin A [20]): 0.33 | binding response (Activin A [19]): 0.62 | binding response (Activin A [8]): 0.2 | binding response (Activin A [9]): -0.03 | binding response (Activin A [10]): 0.26 | binding response (Activin A [11]): 0.31 | binding response (Activin A [12]): 0.31 | binding response (Activin A [13]): 1.76 | binding response (Activin A [14]): 1.55 | binding response (Activin A [15]): 1.84 | binding response (Activin A [16]): 0.49 | binding response (Activin A [17]): 0.27
B3: H4H10430P (antibody, human IgG4, V domains shown)
VH: EVQLVESGGGLVQPGRSLRLSCKASGFAFDDFAMHWVRQAPGKGLEWVSGIVWNSGDIGYADSVKGRFTISRDNAKNSLYLQLNSLRTEDTALYFCVKDMVRGLMGFNYYGMDVWGQGTTVTVSS
VL: EIVLTQSPATLSLSPGERATLSCRASQTISTYLVWYRQRPGQAPSLLIYDASNRATDIPARFSGSGSGTDFTLTISSLEPEDFAVYYCQQRSNWPITFGQGTRLEIK
notes: also called H4H1430P; H4H10430P2

Activin A-20 nM (RU) (Activin A [1]): 12.9 RU | Kd (Activin A [1]): 0.0247 nM | koff (Activin A [1]): 9.28e-05 s⁻¹ | kon (Activin A [1]): 3.76e+06 M⁻¹ s⁻¹ | t1/2 (Activin A [1]): 2.08 h | 50 nM Ag Bound (RU) (Activin B [2]): 18.8 RU | Kd (Activin B [2]): 1.09 nM | koff (Activin B [2]): 0.00116 s⁻¹ | kon (Activin B [2]): 1.06e+06 M⁻¹ s⁻¹ | t1/2 (Activin B [2]): 0.167 h | Activin A-20 nM (RU) (Activin A [3]): 15.3 RU | Kd (Activin A [3]): 0.0515 nM | koff (Activin A [3]): 0.000328 s⁻¹ | kon (Activin A [3]): 6.37e+06 M⁻¹ s⁻¹ | t1/2 (Activin A [3]): 0.587 h | 50 nM Ag Bound (RU) (Activin B [4]): 20.9 RU | Kd (Activin B [4]): 3.29 nM | koff (Activin B [4]): 0.00419 s⁻¹ | kon (Activin B [4]): 1.28e+06 M⁻¹ s⁻¹ | t1/2 (Activin B [4]): 2.8 min | binding response (Activin A [6]): 1.22 | binding response (Activin A [19]): 0.41 | binding response (Activin A [7]): 0.29 | binding response (Activin A [8]): 0.13 | binding response (Activin A [9]): -0.05 | binding response (Activin A [10]): 0.27 | binding response (Activin A [11]): 0.32 | binding response (Activin A [13]): 1.4 | binding response (Activin A [14]): 1.17 | binding response (Activin A [15]): 1.37 | binding response (Activin A [16]): 0.28 | binding response (Activin A [17]): 0.11
B4: H4H10440P2 (antibody, human IgG4, V domains shown)
VH: EVQLVESGGGVVQPGGSLRLSCAASTFTFDDFAMHWVRQAPGKGLEWVSLITGDGGSTYYADPVKGRFTISRDNSKNSLYLQMNSLRTEDTALYYCVKDWWIAARPDYYYYGMDVWGQGTTVTVSS
VL: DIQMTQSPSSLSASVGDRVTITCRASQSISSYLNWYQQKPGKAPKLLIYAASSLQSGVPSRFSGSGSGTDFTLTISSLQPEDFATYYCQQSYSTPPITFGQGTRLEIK
